In patent US20040147432A1 (MERCK, published 2004):
Bridges are numbered along the chain shown (N, C = ends). [ ]: non-standard residue; d: D form. The star is where a group is joined. Pentanoyl(5-guanidino) = NC(N)=NCCCCC(=O)*; hArg = N=C(N)NCCCC[C@H](N)C(=O)O; Nle = CCCC[C@H](N)C(=O)O; GABA = NCCCC(=O)O; βAla = NCCC(=O)O

Tests used:
[1] = biological target: T1, human melanin concentrating hormone type 2 receptor (MCH-2R) (human, UniProt Q969V1 1-340); assay: cell-based or functional assay
human MCH-1R [2] = biological target: T2, human MCH-1R (human, UniProt Q99705 1-353); assay: cell-based or functional assay
T2 sequence (Q99705 whole entry, form in doubt): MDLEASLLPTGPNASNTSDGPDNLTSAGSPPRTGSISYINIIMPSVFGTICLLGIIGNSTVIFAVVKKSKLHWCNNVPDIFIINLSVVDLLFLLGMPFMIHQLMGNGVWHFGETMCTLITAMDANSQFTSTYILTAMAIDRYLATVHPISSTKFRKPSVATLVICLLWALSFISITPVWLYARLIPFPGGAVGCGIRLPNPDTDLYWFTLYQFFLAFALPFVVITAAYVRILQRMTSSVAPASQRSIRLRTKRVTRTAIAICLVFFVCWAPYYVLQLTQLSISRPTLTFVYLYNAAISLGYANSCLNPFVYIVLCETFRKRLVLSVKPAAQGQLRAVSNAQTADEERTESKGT

[3] = biological target: T1, human melanin concentrating hormone …; assay: SPA competition with [125I]-human MCH (Phe13, Tyr19) on receptor membranes
Description: (§1) For the SPA-based assay, WGA-PVT beads (NEN Life Sciences Products) were resuspended in Dulbecco's PBS with calcium and magnesium (500 mg beads in 4 ml PBS). […] The suspension was mixed gently for 20 minutes, 12.3 ml of assay buffer and protease inhibitors were added (final concentration given): 2 μg/ml leupeptin, 10 μM phosphoramidon, 40 μg/ml bacitracin, 5 μg/ml aprotinin, 0.1 mM Pefabloc.
(§2) Coated beads were kept on ice until use. […] Binding reactions were allowed to proceed at room temperature for 3 hours. Quantitation was performed by scintillation counting (TopCount device).

human MCH-1R [4] = biological target: T2, human MCH-1R; assay: as above
Description: as §1, §2

T1 sequence (Q969V1 whole entry, form in doubt): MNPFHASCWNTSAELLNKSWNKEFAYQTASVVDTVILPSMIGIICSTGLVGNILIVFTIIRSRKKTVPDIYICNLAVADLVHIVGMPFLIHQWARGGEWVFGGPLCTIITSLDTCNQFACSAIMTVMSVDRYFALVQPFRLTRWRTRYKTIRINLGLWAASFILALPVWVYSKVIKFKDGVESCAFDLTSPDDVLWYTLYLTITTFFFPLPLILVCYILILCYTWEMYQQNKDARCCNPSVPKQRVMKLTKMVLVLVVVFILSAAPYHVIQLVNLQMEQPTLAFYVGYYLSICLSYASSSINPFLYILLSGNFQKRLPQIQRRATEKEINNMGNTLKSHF

Binder | EC50 (aequorin functional assay) [1] [nM] | Activation % at 10 µM (aequorin functional assay) (human MCH-1R [2]) [%] | EC50 (aequorin functional assay) (human MCH-1R [2]) [nM] | % @ concentration [3] [% @ 10 µM] | IC50 (human MCH-1R [4]) [nM] | Activation % at 10 µM (aequorin functional assay) [1] [%] | IC50 [3] [nM] | % @ concentration (human MCH-1R [4])
Ac-CMLGRVYRPC-NH2 (disulfide 1-10; not fully specified, positions numbered as in hMCH; also called ?Arg^6) [SEQ. ID. NO. 3] | 1500 | 6.5 | 300 | 38.5 | 1.6 |  |  | 
Ac-RCMLG[Nle]VYRPC-NH2 (disulfide 2-11 (inferred), also called Nle^11) [SEQ. ID. NO. 26] | 58 |  | > 1000 |  | 301 | 34 | 9 | 
Ac-RCALGRVYRPC-NH2 (disulfide 2-11; SMILES CC(=O)N[C@@H](CCCNC(=N)N)C(=O)N[C@H]1CSSC[C@@H](C(N)=O)NC(=O)[C@@H]2CCCN2C(=O)[C@H](CCCNC(=N)N)NC(=O)[C@H](Cc2ccc(O)cc2)NC(=O)[C@H](C(C)C)NC(=O)[C@H](CCCNC(=N)N)NC(=O)CNC(=O)[C@H](CC(C)C)NC(=O)[C@H](C)NC1=O, also called Ala^8) [SEQ. ID. NO. 4] | 12 | 42 | 4100 |  | 15 | 104 | 18 | 
Ac-RCMLARVYRPC-NH2 (disulfide 2-11; SMILES CSCC[C@@H]1NC(=O)[C@@H](NC(=O)[C@H](CCCNC(=N)N)NC(C)=O)CSSC[C@@H](C(N)=O)NC(=O)[C@@H]2CCCN2C(=O)[C@H](CCCNC(=N)N)NC(=O)[C@H](Cc2ccc(O)cc2)NC(=O)[C@H](C(C)C)NC(=O)[C@H](CCCNC(=N)N)NC(=O)[C@H](C)NC(=O)[C@H](CC(C)C)NC1=O, also called Ala^10) [SEQ. ID. NO. 7] | 7.7 | 104 | 31 |  | 0.59 | 97 | 4.6 | 
RCMLLRVYRPC (also called Leu^10) [SEQ. ID. NO. 8] | 54 | 106 | 23 |  | 0.06 | 80 | 20 | 
Ac-RCMLSRVYRPC-NH2 (disulfide 2-11; SMILES CSCC[C@@H]1NC(=O)[C@@H](NC(=O)[C@H](CCCNC(=N)N)NC(C)=O)CSSC[C@@H](C(N)=O)NC(=O)[C@@H]2CCCN2C(=O)[C@H](CCCNC(=N)N)NC(=O)[C@H](Cc2ccc(O)cc2)NC(=O)[C@H](C(C)C)NC(=O)[C@H](CCCNC(=N)N)NC(=O)[C@H](CO)NC(=O)[C@H](CC(C)C)NC1=O, also called Ser^10) [SEQ. ID. NO. 10] | 44 | 104 | 65 |  | 0.32 | 95 | 52 | 
Ac-RCMLGAVYRPC-NH2 (disulfide 2-11; SMILES CSCC[C@@H]1NC(=O)[C@@H](NC(=O)[C@H](CCCNC(=N)N)NC(C)=O)CSSC[C@@H](C(N)=O)NC(=O)[C@@H]2CCCN2C(=O)[C@H](CCCNC(=N)N)NC(=O)[C@H](Cc2ccc(O)cc2)NC(=O)[C@H](C(C)C)NC(=O)[C@H](C)NC(=O)CNC(=O)[C@H](CC(C)C)NC1=O, also called Ala^11) [SEQ. ID. NO. 23] | > 1000 |  | > 10000 |  |  | 36 | 9.7 | 
Ac-RCMLGRVFRPC-NH2 (disulfide 2-11; SMILES CSCC[C@@H]1NC(=O)[C@@H](NC(=O)[C@H](CCCNC(=N)N)NC(C)=O)CSSC[C@@H](C(N)=O)NC(=O)[C@@H]2CCCN2C(=O)[C@H](CCCNC(=N)N)NC(=O)[C@H](Cc2ccccc2)NC(=O)[C@H](C(C)C)NC(=O)[C@H](CCCNC(=N)N)NC(=O)CNC(=O)[C@H](CC(C)C)NC1=O, also called Phe^13) [SEQ. ID. NO. 27] | 12 | 96 | 46 |  | 1 | 94 | 1.5 | 
RCMLGRVXRPC ((2)Nal^13 ((2')naphthylalanine)) [SEQ. ID. NO. 28] | 19 | 105 |  |  |  | 90 |  | 
RCMLGRVXRPC (Phe(pF)^13, also called Phe(pF)^13) [SEQ. ID. NO. 29] |  | 98 |  |  | 0.6 | 100 |  | 
RCMLGRVXRPC (Phe(pNH2)^13) [SEQ. ID. NO. 30] | 24 | 88 |  |  |  | 70 |  | 
RCMLGRVXRPC (Cha^13 (2-cyclohexyl-alanine), also called Cha^13) [SEQ. ID. NO. 31] |  | 93 |  |  |  | 76 | 9 | 
RCMLGRVYRXC (Sar^15 (sarcosine)) [SEQ. ID. NO. 32] | 12 | 113 |  |  |  | 91 |  | 
RCMLGRVYRPX (D-Cys^16, also called D-Cys^16) [SEQ. ID. NO. 33] |  | 76 |  |  |  | 90 | 2.3 | 
[Pentanoyl(5-guanidino)]CML[dA]RVYRPC-NH2 (disulfide 2-11 (inferred); not fully specified, also called (?-NH2)-Arg^6, D-Ala^10) [SEQ. ID. NO. 34] | 31 | 4 | 2000 |  | 30 | 110 | 250 | 
RCMLXRVYRPC (Sar^10 (sarcosine)) [SEQ. ID. NO. 6] | 40 | 95 |  |  |  | 94 |  | 
RCALXRVYRPC (not fully specified; D-Ala^10, also called Ala^8, D-Ala^10) [SEQ. ID. NO. 35] | 140 |  | > 10000 |  |  | 120 |  | 70 % @ 1 µM
Ac-RCML[dA][hArg]VYRPC-NH2 (disulfide 2-11 (inferred), also called D-Ala^10, Harg^11) [SEQ. ID. NO. 36] | 19 | 0.1 | > 10000 |  | 56 | 74 | 0.9 | 
RCALXXVYRPC (D-Ala^10, Harg^11 (homoarginine), also called Ala^8, D-Ala^10, Harg^11) [SEQ. ID. NO. 38] | 730 | 20 | > 10000 |  |  | 49 |  | 83 % @ 10 µM
RCXLGRVYRPC (Nle^8 (norleucine), also called Nle^8) [SEQ. ID. NO. 5] | 12 | 105 |  |  | 0.5 | 105 |  | 
RCMLXRVYRPC (Nle^10 (norleucine)) [SEQ. ID. NO. 9] | 16 | 106 | 15 |  |  | 103 |  | 
RCMLXRVYRPC (D-Leu^10) [SEQ. ID. NO. 14] |  | 23 |  |  |  | 83 |  | 
RCMLXRVYRPC (D-Nle^10, also called D-Nle^10) [SEQ. ID. NO. 15] |  | 33 |  |  |  | 78 | 2.3 | 
Ac-RCML[βAla]RVYRPC-NH2 (disulfide 2-11 (inferred)) [SEQ. ID. NO. 20] |  | 3.2 | > 1000 |  |  | 92 |  | 
Ac-RCML[GABA]RVYRPC-NH2 (disulfide 2-11 (inferred), also called εAbu^10) [SEQ. ID. NO. 21] |  | 101 |  |  | 2.1 | 112 |  | 
RCMLGXVYRPC (N-Me-Arg^11) [SEQ. ID. NO. 22] |  | 110 |  |  |  | 86 |  | 
